Test results reported in IntAct's records for PubMed 14675752.

B1: Clathrin interactor 1 (Homo sapiens), Q14677 (parent)
chain: MLNMWKVRELVDKATNVVMNYSEIESKVREATNDDPWGPSGQLMGEIAKATFMYEQFPELMNMLWSRMLKDNKKNWRRVYKSLLLLAYLIRNGSERVVTSAREHIYDLRSLENYHFVDEHGKDQGINIRQKVKELVEFAQDDDRLREERKKAKKNKDKYVGVSSDSVGGFRYSERYDPEPKSKWDEEWDKNKSAFPFSDKLGELSDKIGSTIDDTISKFRRKDREDSPERCSDSDEEKKARRGRSPKGEFKDEEETVTTKHIHITQATETTTTRHKRTANPSKTIDLGAAAHYTGDKASPDQNASTHTPQSSVKTSVPSSKSSGDLVDLFDGTSQSTGGSADLFGGFADFGSAAASGSFPSQVTATSGNGDFGDWSAFNQAPSGPVASSGEFFGSASQPAVELVSGSQSALGPPPAASNSSDLFDLMGSSQATMTSSQSMNFSMMSTNTVGLGLPMSRSQNTDMVQKSVSKTLPSTWSDPSVNISLDNLLPGMQPSKPQQPSLNTMIQQQNMQQPMNVMTQSFGAVNLSSPSNMLPVRPQTNALIGGPMPMSMPNVMTGTMGMAPLGNTPMMNQSMMGMNMNIGMSAAGMGLTGTMGMGMPNIAMTSGTVQPKQDAFANFANFSK

Variants of: B1
Conditions: with ap1g1_mouse Ap1g1, P22892
Sequence of ap1g1_mouse Ap1g1, P22892 (P22892 whole entry): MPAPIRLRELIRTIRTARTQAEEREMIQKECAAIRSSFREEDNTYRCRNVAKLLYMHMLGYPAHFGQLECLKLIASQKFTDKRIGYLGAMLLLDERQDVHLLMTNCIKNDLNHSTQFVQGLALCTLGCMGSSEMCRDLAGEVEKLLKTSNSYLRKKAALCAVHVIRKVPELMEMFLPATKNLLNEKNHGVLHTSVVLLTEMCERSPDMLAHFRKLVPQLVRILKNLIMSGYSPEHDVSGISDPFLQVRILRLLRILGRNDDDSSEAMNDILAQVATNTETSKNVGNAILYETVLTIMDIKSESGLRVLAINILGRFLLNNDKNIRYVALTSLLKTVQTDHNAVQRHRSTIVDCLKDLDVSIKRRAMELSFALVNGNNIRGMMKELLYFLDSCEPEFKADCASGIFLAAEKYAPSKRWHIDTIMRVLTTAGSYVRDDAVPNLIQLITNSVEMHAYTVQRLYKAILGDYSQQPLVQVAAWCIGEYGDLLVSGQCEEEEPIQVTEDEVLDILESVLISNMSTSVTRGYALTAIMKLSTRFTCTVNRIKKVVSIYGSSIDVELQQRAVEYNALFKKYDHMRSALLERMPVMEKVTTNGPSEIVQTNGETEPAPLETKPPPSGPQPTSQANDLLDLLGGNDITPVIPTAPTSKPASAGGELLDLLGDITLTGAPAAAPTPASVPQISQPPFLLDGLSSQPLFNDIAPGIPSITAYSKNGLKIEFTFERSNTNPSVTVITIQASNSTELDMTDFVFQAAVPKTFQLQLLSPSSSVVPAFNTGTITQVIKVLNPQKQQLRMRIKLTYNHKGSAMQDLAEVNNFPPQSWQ

Row | Variant | effect of a mutation on the interaction
1 | D374A | decreasing interaction

Variants of: B1
Conditions: with ap1g1_mouse Ap1g1, P22892
Remark: another data set of the same source

Row | Variant | effect of a mutation on the interaction
2 | W375A | decreasing interaction

Variants of: B1
Conditions: with ap1g1_mouse Ap1g1, P22892
Remark: another data set of the same source

Row | Variant | effect of a mutation on the interaction
3 | D371A | decreasing interaction

Variants of: B1
Conditions: with ap1g1_mouse Ap1g1, P22892
Remark: another data set of the same source

Row | Variant | effect of a mutation on the interaction
4 | F372A | decreasing interaction

Variants of: B1
Conditions: with ap1g1_mouse Ap1g1, P22892
Remark: another data set of the same source

Row | Variant | effect of a mutation on the interaction
5 | F378A | decreasing interaction

Variants of: B1
Conditions: with ap1g1_mouse Ap1g1, P22892
Remark: another data set of the same source

Row | Variant | effect of a mutation on the interaction
6 | G373R | decreasing interaction
